Measurements taken from paper PMC12153317.

Target: specific HAs not engaged in ELISA (soluble HA ectodomains) (influenza virus)
Experiment: ELISA

Substance: CR8071
- Kd: 350 pM
